Results published in the DeepSol protein solubility set.

Assay: soluble on expression in E. coli; label from the status in PepcDB or PDB records

Sequence | soluble on expression in E. coli
MDNGHIEETNNVEIDPATGGAVMSFSYASDFPTLPDAAPASAPTAKQTHVWSRPTLSKSEVNITFRLASDERSNKVKSFGSTSEESKKAQAIATATKTRIELSESKDGELTVVVKGERAKAEEARARIIRDLQTQASREIDIPKDHHGRLIGKEGALLRNLEAETNCRIQIPNRDGPSSKITITGPREGIQRAAAHILAVSEREAKLATEHIVCPKNLVAFVRGPKNETYDRLTQNNGVKINIPPPHVTNEVISVTGEKDGVLRVAAEIRQIIESKKNVSSIQVAVARTQHRYIVGQSRSGIHDVLQKTGCVVEVPAEDSGSDQVTLIGNAQDLAKALALVIERASSVVTQSISAPNWLHKHLIGPKGATLTALVPNRNNVQIEFDNSNQIFLEGSPEEVKLAFEPLSKEVARLQMELAIEKVKVHPTLHRHVIGRGGSLISKIKDQHGVQITIPNEETNSDEIVVEGKKEGVKKAVTEIRAIVTKIENEKSRDIIIPQRLHKLIIGSKGSGVQVIRDSHPNVSVVFPDAKSKSDVVNIRGDKTEVDAVYKKLTALSKEYAENNYQQTVAIFKEFLKHIVGKGGASIRKLRDETETRIDLPESGSDDGKITVTGKQANVEKAVAQLNKIQEELANVAEESIEIPQKVQSRFFGNGRRLISDIEDECGGVHIRFPSEKSESTKVTIRGPAGDVAKAVGLLSALAKDKEENYVEDTVKAKPEFHRFLIGKGGSKIAKLRDTLNVRVMFPKEGDAEKETIHLLGKKEDVPKAKAALEDAIKQLSETVDIKITVDPKYYKNFLARGAALVKEIQEQNGGVVISFPKNGTDSSEVSIRGSKQCVEAAKNRIEDVVEDYEKQITDNVTIPAQFHRGLLAGRGAKIHELQSKYNVSIRFPNNREEGSEGSDQVTVSGRDTKVEEAKEALLAMVPISKVIQLPVDMHRSIIGRGGETVRKLMQDYDVNISIPKDNSSEDITVTGQTENVDQALEALRGKLGEYEAQAEDRKLKQWSMSINVPTDYHQKIIGQRGATITALKEKYGVIINVPREDGNETITIQGYEEKANECAAAIEEMISELRSMFTQEISLDARYHPRLIGQRGKNLKKVMEDYRVEIRLPRQGAEDPNLVVVAGKDENDVYDCIDHLRAEEEEFLLDNVERTQYMSPRQQESNNTRHHQQPTSVQMKGAPWQLDLGSSEQFPDMGPAAGSSAAVGGAGAWGSSRRW | not soluble
MSPEDAITRAELLRRREAGEVTLVDVRPHEEYQAGHIPGAINIPIAELADRLAELAGDRDIVAYCRGAYCVMAPDAVRIARDAGREVKRLDDGMLEWRLAGLPVDEGALEHHHHHH | not soluble
MSTQEVNITLTDFINQLDSNAEQVSFEQVMKVISENYNYLPATFNNGDLFNEAGTNEGSCKIFYFAKLNNLSEQQTLACFGRFYREDVVNNPQGNDHGNIRNFMQSGWSKVEFNSVALTPLT | not soluble
MKASTVLQIAYLVSQESKCCSWKVGAVIEKNGRIISTGYNGSPAGGVNCCDYAAEQGWLLNKPKHAIIQGHKPECVSFGSTDRFVLAKEHRSAHSEWSSKNEIHAELNAILFAAENGSSIEGATMYVTLSPCPDCAKAIAQSGIKKLVYCETYDKNKPGWDDILRNAGIEVFNVPKKNLNKLNWENINEFCGE | soluble
MLEKVYVALIHYPIKGKDGSIISTAVTNLDVHDIARTARTYNLKGYYIVTNLRAQQDMVSKMLKFWREGFGSRYNPSRAESLKLVKLKSYLEDVLEDIESVEGERPLIFFTSAKKRENDISFEEGRRIIIETEKPVLILLGTGWGLPDEILEISDYVLEPIRAQSDFNHLSVRAAAAIIIDRLIGENYARRD | soluble
MGSDKIHHHHHHMVNDMQERQNRYWQLLHQPDRLLLLHQASSVEQFVTLMGDWLAWPELTLDQMLDFVHMQRWEDFTPKLALFSQAWLPYRYCSQSKEVYWIPAFNQLSKPFLEDDISDIRLGLLAIFIQPKTLLKSLLTQCDSVPEIHPCLMIFHWSRCGSTLVSSSFSKLNDCLVISESMLCSDIMRDDFWSQEVKVKLVDLCLRLQGRFRHGERHLVVKWNAWDLAYWPMLLALYPQSRVLCLIRNPKDILASHQRLAGRHMVEGQGLLSTEWHIQQIETVSTTFSLNKFRISVLQHLAQLTHALLNSNRAILLDYQQVKDFHPTTLSTILGRPLSMDEIECWQDHWCFDAKQQGQVFTPAVSNQPVPLRELQSPSWQQLFMTYNQLLQRLYWDKKHDV | not soluble
MSRDNQEIKAPEESSAEEQKEMDDKVTSPEKAEEIKLKSRYPNIGPKPGGSDFLRKRLQKGQKYFDSGDYNMAKAKMKNKQLPTAAPDKTEVTGDHIPTPQDLPQRKPSLVASKLAG | soluble
MPQILVDADACPVKAEIKQVAKEFQLEVTFVASFNHYSVNTNGENWIFVDTGKESADMRMMNLAKKGDIIVTQDIGLASILLAKGTFVFSNRGELYREEEMSLMLDIRYRHAKERQQGKYSKGPKAMSDQDRSLFKDRLTTFLQNKLEHHHHHH | soluble
